From publication PMC9352680, “A comprehensive thermodynamic model for RNA binding by the Saccharomyces cerevisiae Pumilio protein PUF4”

Target: T1, PUF4 RNA-binding domain (Saccharomyces cerevisiae, UniProt P25339 537-888)
T1 sequence: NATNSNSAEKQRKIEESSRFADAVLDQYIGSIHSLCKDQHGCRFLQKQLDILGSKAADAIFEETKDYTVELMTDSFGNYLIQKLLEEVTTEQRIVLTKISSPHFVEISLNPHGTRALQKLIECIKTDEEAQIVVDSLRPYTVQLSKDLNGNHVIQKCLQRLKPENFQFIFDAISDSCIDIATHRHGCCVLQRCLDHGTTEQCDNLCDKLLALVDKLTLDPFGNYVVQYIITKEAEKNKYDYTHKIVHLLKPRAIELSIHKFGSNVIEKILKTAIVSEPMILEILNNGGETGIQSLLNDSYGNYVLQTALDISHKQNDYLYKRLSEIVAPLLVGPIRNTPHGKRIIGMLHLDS
Assay: Mg; RNA-MaP; 20 mM Na-HEPES pH 7.4, 30 mM KOAc, 0.75 mM MgCl2, 0.1% Tween-20, 5% glycerol, 0.1 mg/mL BSA, 2 mM DTT; 25 C; 0.0125-409.6 nM protein
Conditions: tags: N-His6-TEV cleaved; C-SNAP kept, Cy3B-labelled; label: tethered on chip by stalled RNA polymerase

Row | Binder | Kd [nM]
1 | Ie_S2_P3E.2_K3.1_C3.2_H3.1_[+4CTT]_A3.1_F3.1_T3.2 (ssRNA) RNA: UUUGAUUAAUAUGAUAUCGUUCUUUCUCUUGUACUUUAUAUAUUCUUUCUCGAUAUCAUAUUAAUCUUU | 1.08
2 | Ie_S2_P3E.2_K3.1_C3.2_H3.1_[+4CTCT]_A3.1_F3.1_T3.2 (ssRNA) RNA: UUUGAUUAAUAUGAUAUCGUUCUUUCUCUUGUACUCUUAUAUAUUCUUUCUCGAUAUCAUAUUAAUCUUU | 3.27
3 | Ie_S2_P3E.2_K3.1_C3.2_H3.1_[+4CCTC]_A3.1_F3.1_T3.2 (ssRNA) RNA: UUUGAUUAAUAUGAUAUCGUUCUUUCUCUUGUACCUCUAUAUAUUCUUUCUCGAUAUCAUAUUAAUCUUU | 4.82
4 | Ie_S2_P3E.2_K3.1_C3.2_H3.1_[+4CCCT]_A3.1_F3.1_T3.2 (ssRNA) RNA: UUUGAUUAAUAUGAUAUCGUUCUUUCUCUUGUACCCUUAUAUAUUCUUUCUCGAUAUCAUAUUAAUCUUU | 2.61
5 | Ic_S2_P3E.1_K3.1_C3.1_H3.1_A3.1_[T5C]_F3.1_[A8G]_T3.1 (ssRNA) RNA: UUUGAUUAAUAUGAUAUCGUUCUUUCUUGUACAUGUUCUUUCUCGAUAUCAUAUUAAUCUUU | 10.4
6 | Ie_S2_P3E.2_K3.1_C3.2_H3.1_[+4CCCTT]_A3.1_F3.1_T3.2 (ssRNA) RNA: UUUGAUUAAUAUGAUAUCGUUCUUUCUCUUGUACCCUUUAUAUAUUCUUUCUCGAUAUCAUAUUAAUCUUU | 6.09
7 | Ie_S2_P3E.2_K3.1_C3.2_H3.1_A3.1_[+5C]_F3.1_T3.2 (ssRNA) RNA: UUUGAUUAAUAUGAUAUCGUUCUUUCUCUUGUAUCAUAUAUUCUUUCUCGAUAUCAUAUUAAUCUUU | 0.639
8 | Ie_S2_P3E.2_K3.1_C3.2_H3.1_A3.1_[+5CC]_F3.1_T3.2 (ssRNA) RNA: UUUGAUUAAUAUGAUAUCGUUCUUUCUCUUGUAUCCAUAUAUUCUUUCUCGAUAUCAUAUUAAUCUUU | 7.04
9 | Ie_S2_P3E.2_K3.1_C3.2_H3.1_A3.1_[+6C]_F3.1_T3.2 (ssRNA) RNA: UUUGAUUAAUAUGAUAUCGUUCUUUCUCUUGUAUACUAUAUUCUUUCUCGAUAUCAUAUUAAUCUUU | 0.437
10 | Ie_S2_P3E.2_K3.1_C3.2_H3.1_A3.1_F3.1_[+7CT]_T3.2 (ssRNA) RNA: UUUGAUUAAUAUGAUAUCGUUCUUUCUCUUGUAUAUCUAUAUUCUUUCUCGAUAUCAUAUUAAUCUUU | 3.3
11 | Ie_S2_P3E.2_K3.1_C3.2_H3.1_A3.1_F3.1_[+7C]_T3.2 (ssRNA) RNA: UUUGAUUAAUAUGAUAUCGUUCUUUCUCUUGUAUAUCAUAUUCUUUCUCGAUAUCAUAUUAAUCUUU | 5.11
12 | Ie_S2_P3E.2_K3.1_C3.2_H3.1_A3.1_F3.1_[+7CC]_T3.2 (ssRNA) RNA: UUUGAUUAAUAUGAUAUCGUUCUUUCUCUUGUAUAUCCAUAUUCUUUCUCGAUAUCAUAUUAAUCUUU | 17.5
13 | Ie_S2_P3E.2_K3.1_C3.2_H3.1_A3.1_F3.1_[+7CCC]_T3.2 (ssRNA) RNA: UUUGAUUAAUAUGAUAUCGUUCUUUCUCUUGUAUAUCCCAUAUUCUUUCUCGAUAUCAUAUUAAUCUUU | 19.5
14 | Ie_S2_P3E.2_K3.1_C3.2_H3.1_A3.1_F3.1_[+7CTC]_T3.2 (ssRNA) RNA: UUUGAUUAAUAUGAUAUCGUUCUUUCUCUUGUAUAUCUCAUAUUCUUUCUCGAUAUCAUAUUAAUCUUU | 14
15 | Ie_S2_P3E.2_K3.1_C3.2_H3.1_A3.1_F3.1_[+7TCC]_T3.2 (ssRNA) RNA: UUUGAUUAAUAUGAUAUCGUUCUUUCUCUUGUAUAUUCCAUAUUCUUUCUCGAUAUCAUAUUAAUCUUU | 6.48
16 | Ic_S2_P3E.1_K3.1_C3.1_H3.1_A3.1_[T5C]_F3.1_[A8C]_T3.1 (ssRNA) RNA: UUUGAUUAAUAUGAUAUCGUUCUUUCUUGUACAUCUUCUUUCUCGAUAUCAUAUUAAUCUUU | 11.1
17 | Ie_S2_P3E.2_K3.1_C3.2_H3.1_A3.1_F3.1_[+7TTC]_T3.2 (ssRNA) RNA: UUUGAUUAAUAUGAUAUCGUUCUUUCUCUUGUAUAUUUCAUAUUCUUUCUCGAUAUCAUAUUAAUCUUU | 9.85
18 | Ie_S2_P3E.2_K3.1_C3.2_H3.1_A3.1_F3.1_[+8C]_T3.2 (ssRNA) RNA: UUUGAUUAAUAUGAUAUCGUUCUUUCUCUUGUAUAUACUAUUCUUUCUCGAUAUCAUAUUAAUCUUU | 2.93
19 | Ie_S2_P3E.2_K3.1_C3.2_H3.1_A3.1_F3.1_[+8T]_T3.2 (ssRNA) RNA: UUUGAUUAAUAUGAUAUCGUUCUUUCUCUUGUAUAUAUUAUUCUUUCUCGAUAUCAUAUUAAUCUUU | 1.66
20 | Ie_S2_P3E.2_K3.1_C3.2_H3.1_A3.1_F3.1_[+8CT]_T3.2 (ssRNA) RNA: UUUGAUUAAUAUGAUAUCGUUCUUUCUCUUGUAUAUACUUAUUCUUUCUCGAUAUCAUAUUAAUCUUU | 3.03
21 | Ie_S2_P3E.2_K3.1_C3.2_H3.1_A3.1_F3.1_[+8TC]_T3.2 (ssRNA) RNA: UUUGAUUAAUAUGAUAUCGUUCUUUCUCUUGUAUAUAUCUAUUCUUUCUCGAUAUCAUAUUAAUCUUU | 2.05
22 | Ie_S2_P3E.2_K3.1_C3.2_H3.1_A3.1_F3.1_[+8TT]_T3.2 (ssRNA) RNA: UUUGAUUAAUAUGAUAUCGUUCUUUCUCUUGUAUAUAUUUAUUCUUUCUCGAUAUCAUAUUAAUCUUU | 1.56

Row | Binder | Kd [nM]
23 | Ie_S2_P3E.2_K3.1_C3.2_H3.1_A3.1_F3.1_[+8CCC]_T3.2 (ssRNA) RNA: UUUGAUUAAUAUGAUAUCGUUCUUUCUCUUGUAUAUACCCUAUUCUUUCUCGAUAUCAUAUUAAUCUUU | 7.81
24 | Ie_S2_P3E.2_K3.1_C3.2_H3.1_A3.1_F3.1_[+8CCT]_T3.2 (ssRNA) RNA: UUUGAUUAAUAUGAUAUCGUUCUUUCUCUUGUAUAUACCUUAUUCUUUCUCGAUAUCAUAUUAAUCUUU | 2.8
25 | Ie_S2_P3E.2_K3.1_C3.2_H3.1_A3.1_F3.1_[+8CTC]_T3.2 (ssRNA) RNA: UUUGAUUAAUAUGAUAUCGUUCUUUCUCUUGUAUAUACUCUAUUCUUUCUCGAUAUCAUAUUAAUCUUU | 5.33
26 | Ie_S2_P3E.2_K3.1_C3.2_H3.1_A3.1_F3.1_[+8TCC]_T3.2 (ssRNA) RNA: UUUGAUUAAUAUGAUAUCGUUCUUUCUCUUGUAUAUAUCCUAUUCUUUCUCGAUAUCAUAUUAAUCUUU | 2.84
27 | Ia_S2_P3E.1_K3.1_C3.1_H3.1_[G2T]_A3.1_F3.1_T3.1 (ssRNA) RNA: UUUGAUUAAUAUGAUAUCGUUCUUUCUUUUAUAUAUUCUUUCUCGAUAUCAUAUUAAUCUUU | 366
28 | Ib_S2_P3E.1_K3.1_C3.1_H3.1_A3.1_[T5C]_F3.1_[A8T]_T3.1 (ssRNA) RNA: UUUGAUUAAUAUGAUAUCGUUCUUUCUUGUACAUUUUCUUUCUCGAUAUCAUAUUAAUCUUU | 1.62
29 | Ie_S2_P3E.2_K3.1_C3.2_H3.1_A3.1_F3.1_[+8TTC]_T3.2 (ssRNA) RNA: UUUGAUUAAUAUGAUAUCGUUCUUUCUCUUGUAUAUAUUCUAUUCUUUCUCGAUAUCAUAUUAAUCUUU | 2.96
30 | Ie_S2_P3E.2_K3.1_C3.2_H3.1_A3.1_F3.1_[+8TCT]_T3.2 (ssRNA) RNA: UUUGAUUAAUAUGAUAUCGUUCUUUCUCUUGUAUAUAUCUUAUUCUUUCUCGAUAUCAUAUUAAUCUUU | 2.19
31 | Ie_S2_P3E.2_K3.1_C3.2_H3.1_A3.1_F3.1_[+8TCTC]_T3.2 (ssRNA) RNA: UUUGAUUAAUAUGAUAUCGUUCUUUCUCUUGUAUAUAUCUCUAUUCUUUCUCGAUAUCAUAUUAAUCUUU | 3.5
32 | Ie_S2_P3E.2_K3.1_C3.2_H3.1_A3.1_F3.1_[+8CCTC]_T3.2 (ssRNA) RNA: UUUGAUUAAUAUGAUAUCGUUCUUUCUCUUGUAUAUACCUCUAUUCUUUCUCGAUAUCAUAUUAAUCUUU | 4.3
33 | Ie_S2_P3E.2_K3.1_C3.2_H3.1_A3.1_F3.1_[+8TTCC]_T3.2 (ssRNA) RNA: UUUGAUUAAUAUGAUAUCGUUCUUUCUCUUGUAUAUAUUCCUAUUCUUUCUCGAUAUCAUAUUAAUCUUU | 2.56
34 | Ie_S2_P3E.2_K3.1_C3.2_H3.1_A3.1_F3.1_[+8CTCTC]_T3.2 (ssRNA) RNA: UUUGAUUAAUAUGAUAUCGUUCUUUCUCUUGUAUAUACUCUCUAUUCUUUCUCGAUAUCAUAUUAAUCUUU | 5.38
35 | Ie_S2_P3E.2_K3.1_C3.2_H3.1_A3.1_F3.1_[+8TCTCT]_T3.2 (ssRNA) RNA: UUUGAUUAAUAUGAUAUCGUUCUUUCUCUUGUAUAUAUCUCUUAUUCUUUCUCGAUAUCAUAUUAAUCUUU | 3.44
36 | Ie_S2_P3E.2_K3.1_C3.2_H3.1_A3.1_F3.1_[+8CCTCT]_T3.2 (ssRNA) RNA: UUUGAUUAAUAUGAUAUCGUUCUUUCUCUUGUAUAUACCUCUUAUUCUUUCUCGAUAUCAUAUUAAUCUUU | 4.17
37 | Ie_S2_P3E.2_K3.1_C3.2_H3.1_A3.1_F3.1_[+8TTCCT]_T3.2 (ssRNA) RNA: UUUGAUUAAUAUGAUAUCGUUCUUUCUCUUGUAUAUAUUCCUUAUUCUUUCUCGAUAUCAUAUUAAUCUUU | 2.02
38 | Ie_S2_P3E.2_K3.1_C3.2_H3.1_A3.1_F3.1_[+8CCCTT]_T3.2 (ssRNA) RNA: UUUGAUUAAUAUGAUAUCGUUCUUUCUCUUGUAUAUACCCUUUAUUCUUUCUCGAUAUCAUAUUAAUCUUU | 3.77
39 | Ic_S2_P3E.1_K3.1_C3.1_H3.1_A3.1_[A6G]_F3.1_[A8G]_T3.1 (ssRNA) RNA: UUUGAUUAAUAUGAUAUCGUUCUUUCUUGUAUGUGUUCUUUCUCGAUAUCAUAUUAAUCUUU | 44.9
40 | Ie_S2_P4E.1_K4.1_C4.1_H4.1_[+1T]_A4.1_F4.1_T4.1 (ssRNA) RNA: UUUGAUUAAUAUGAUAUCGUUCUUUCUUUGUAUAUUAUUCUUUCUCGAUAUCAUAUUAAUCUUU | 0.232
41 | Ie_S2_P4E.1_K4.1_C4.1_H4.1_[+1TC]_A4.1_F4.1_T4.1 (ssRNA) RNA: UUUGAUUAAUAUGAUAUCGUUCUUUCUUUCGUAUAUUAUUCUUUCUCGAUAUCAUAUUAAUCUUU | 8.48
42 | Ie_S2_P4E.1_K4.1_C4.1_H4.1_[+1CCT]_A4.1_F4.1_T4.1 (ssRNA) RNA: UUUGAUUAAUAUGAUAUCGUUCUUUCUUCCUGUAUAUUAUUCUUUCUCGAUAUCAUAUUAAUCUUU | 0.245
43 | Ie_S2_P4E.1_K4.1_C4.1_H4.1_[+1TTC]_A4.1_F4.1_T4.1 (ssRNA) RNA: UUUGAUUAAUAUGAUAUCGUUCUUUCUUUUCGUAUAUUAUUCUUUCUCGAUAUCAUAUUAAUCUUU | 7.09
44 | Ie_S2_P4E.1_K4.1_C4.1_H4.1_[+1TCT]_A4.1_F4.1_T4.1 (ssRNA) RNA: UUUGAUUAAUAUGAUAUCGUUCUUUCUUUCUGUAUAUUAUUCUUUCUCGAUAUCAUAUUAAUCUUU | 0.234
